B1: AQ1-Glu-C13-COOH (ligand)
chain 1: XLYSALANKCCHVGCTKRSLARFC
chain 2: ASWMEEVIKLCGRELVRAQIAICGMSTWS
modifications: not fully specified; pAcF (para-acetyl-L-phenylalanine) at position 1, oxime-linked to PK enhancer Glu-C13-COOH
B2: AQ1-KGP-Glu^γ-C14-COOH (ligand)
chain 1: XLYSALANKCCHVGCTKRSLARFC
chain 2: ASWMEEVIKLCGRELVRAQIAICGMSTWS
peptide: KGPE
modifications: not fully specified; Glu^γ bonded by amide to fatty acid -C14-COOH; oxime-linked to pAcF of the A chain; pAcF (para-acetyl-L-phenylalanine) at position 1, oxime-linked to PK enhancer KGP-Glu^γ-C14-COOH
B3: AQ1-GGGGP-Glu^γ-C14-COOH (ligand)
chain 1: XLYSALANKCCHVGCTKRSLARFC
chain 2: ASWMEEVIKLCGRELVRAQIAICGMSTWS
peptide: GGGGPE
modifications: not fully specified; Glu^γ bonded by amide to fatty acid -C14-COOH; oxime-linked to pAcF of the A chain; pAcF (para-acetyl-L-phenylalanine) at position 1, oxime-linked to PK enhancer GGGGP-Glu^γ-C14-COOH
B4: AQ1-20kDa PEG (ligand)
chain 1: XLYSALANKCCHVGCTKRSLARFC
chain 2: ASWMEEVIKLCGRELVRAQIAICGMSTWS
modifications: pAcF (para-acetyl-L-phenylalanine) at position 1, oxime-linked to 20 kDa PEG
B5: AQ1-KKGGS-Glu^γ -C15-COOH (ligand)
chain 1: XLYSALANKCCHVGCTKRSLARFC
chain 2: ASWMEEVIKLCGRELVRAQIAICGMSTWS
peptide: KKGGSE
modifications: not fully specified; Glu^γ bonded by amide to fatty acid -C15-COOH; oxime-linked to pAcF of the A chain; pAcF (para-acetyl-L-phenylalanine) at position 1, oxime-linked to PK enhancer KKGGS-Glu^γ-C15-COOH
B6: AQ1-KK-Glu^γ-C14-CH3 (ligand)
chain 1: XLYSALANKCCHVGCTKRSLARFC
chain 2: ASWMEEVIKLCGRELVRAQIAICGMSTWS
peptide: KKE
modifications: not fully specified; Glu^γ bonded by amide to fatty acid -C14-CH3; oxime-linked to pAcF of the A chain; pAcF (para-acetyl-L-phenylalanine) at position 1, oxime-linked to PK enhancer KK-Glu^γ-C14-CH3
B7: AQ1-Glu-C13-CH3 (ligand)
chain 1: XLYSALANKCCHVGCTKRSLARFC
chain 2: ASWMEEVIKLCGRELVRAQIAICGMSTWS
modifications: not fully specified; pAcF (para-acetyl-L-phenylalanine) at position 1, oxime-linked to PK enhancer Glu-C13-CH3
B8: AQ1-SGGGS-Glu^γ-C14-COOH (ligand)
chain 1: XLYSALANKCCHVGCTKRSLARFC
chain 2: ASWMEEVIKLCGRELVRAQIAICGMSTWS
peptide: SGGGSE
modifications: not fully specified; Glu^γ bonded by amide to fatty acid -C14-COOH; oxime-linked to pAcF of the A chain; pAcF (para-acetyl-L-phenylalanine) at position 1, oxime-linked to PK enhancer SGGGS-Glu^γ-C14-COOH
B9: AQ1-KGPGSE-Glu^γ-C14-COOH (ligand)
chain 1: XLYSALANKCCHVGCTKRSLARFC
chain 2: ASWMEEVIKLCGRELVRAQIAICGMSTWS
peptide: KGPGSEE
modifications: not fully specified; Glu^γ bonded by amide to fatty acid -C14-COOH; oxime-linked to pAcF of the A chain; pAcF (para-acetyl-L-phenylalanine) at position 1, oxime-linked to PK enhancer KGPGSE-Glu^γ-C14-COOH
B10: AQ1-PEG36-Glu-C13-CH3 (ligand)
chain 1: XLYSALANKCCHVGCTKRSLARFC
chain 2: ASWMEEVIKLCGRELVRAQIAICGMSTWS
modifications: not fully specified; pAcF (para-acetyl-L-phenylalanine) at position 1, oxime-linked to PK enhancer PEG36-Glu-C13-CH3
B11: AQ1-PEG36-Glu-C13-COOH (ligand)
chain 1: XLYSALANKCCHVGCTKRSLARFC
chain 2: ASWMEEVIKLCGRELVRAQIAICGMSTWS
modifications: not fully specified; pAcF (para-acetyl-L-phenylalanine) at position 1, oxime-linked to PK enhancer PEG36-Glu-C13-COOH
B12: AQ1-KGGGSE-Glu^γ-C14-COOH (ligand)
chain 1: XLYSALANKCCHVGCTKRSLARFC
chain 2: ASWMEEVIKLCGRELVRAQIAICGMSTWS
peptide: KGGGSEE
modifications: not fully specified; Glu^γ bonded by amide to fatty acid -C14-COOH; oxime-linked to pAcF of the A chain; pAcF (para-acetyl-L-phenylalanine) at position 1, oxime-linked to PK enhancer KGGGSE-Glu^γ-C14-COOH
B13: AQ1-KGGGS-Glu^γ-C14-COOH (ligand)
chain 1: XLYSALANKCCHVGCTKRSLARFC
chain 2: ASWMEEVIKLCGRELVRAQIAICGMSTWS
peptide: KGGGSE
modifications: not fully specified; Glu^γ bonded by amide to fatty acid -C14-COOH; oxime-linked to pAcF of the A chain; pAcF (para-acetyl-L-phenylalanine) at position 1, oxime-linked to PK enhancer KGGGS-Glu^γ-C14-COOH
B14: AQ1-GSPGSP-Glu^γ-C14-COOH (ligand)
chain 1: XLYSALANKCCHVGCTKRSLARFC
chain 2: ASWMEEVIKLCGRELVRAQIAICGMSTWS
peptide: GSPGSPE
modifications: not fully specified; Glu^γ bonded by amide to fatty acid -C14-COOH; oxime-linked to pAcF of the A chain; pAcF (para-acetyl-L-phenylalanine) at position 1, oxime-linked to PK enhancer GSPGSP-Glu^γ-C14-COOH
B15: AQ1-KGGEEKKKEKEKEPKGGEEKKKEKEK-Glu^γ-C15-COOH (ligand)
chain 1: XLYSALANKCCHVGCTKRSLARFC
chain 2: ASWMEEVIKLCGRELVRAQIAICGMSTWS
peptide: KGGEEKKKEKEKEPKGGEEKKKEKEKE
modifications: not fully specified; Glu^γ bonded by amide to fatty acid -C15-COOH; oxime-linked to pAcF of the A chain; pAcF (para-acetyl-L-phenylalanine) at position 1, oxime-linked to PK enhancer KGGEEKKKEKEKEPKGGEEKKKEKEK-Glu^γ-C15-COOH
B16: AQ1-KK-Glu^γ-C15-COOH (ligand)
chain 1: XLYSALANKCCHVGCTKRSLARFC
chain 2: ASWMEEVIKLCGRELVRAQIAICGMSTWS
peptide: KKE
modifications: not fully specified; Glu^γ bonded by amide to fatty acid -C15-COOH; oxime-linked to pAcF of the A chain; pAcF (para-acetyl-L-phenylalanine) at position 1, oxime-linked to PK enhancer …
B17: AQ1-Spermine-Glu^γ-C14-COOH (ligand)
chain 1: XLYSALANKCCHVGCTKRSLARFC
chain 2: ASWMEEVIKLCGRELVRAQIAICGMSTWS
modifications: not fully specified; pAcF (para-acetyl-L-phenylalanine) at position 1, oxime-linked to PK enhancer Spermine-Glu^γ-C14-COOH (compound 27 of Example 6)
B18: AQ1-KK-Glu^γ-C14-COOH (ligand)
chain 1: XLYSALANKCCHVGCTKRSLARFC
chain 2: ASWMEEVIKLCGRELVRAQIAICGMSTWS
peptide: KKE
modifications: not fully specified; Glu^γ bonded by amide to fatty acid -C14-COOH; oxime-linked to pAcF of the A chain; pAcF (para-acetyl-L-phenylalanine) at position 1, oxime-linked to PK enhancer …
B19: AQ1-EGGGP-Glu^γ-C14-COOH (ligand)
chain 1: XLYSALANKCCHVGCTKRSLARFC
chain 2: ASWMEEVIKLCGRELVRAQIAICGMSTWS
peptide: EGGGPE
modifications: not fully specified; Glu^γ bonded by amide to fatty acid -C14-COOH; oxime-linked to pAcF of the A chain; pAcF (para-acetyl-L-phenylalanine) at position 1, oxime-linked to PK enhancer EGGGP-Glu^γ-C14-COOH
B20: AQ1-EGGS-Glu^γ-C14-COOH (ligand)
chain 1: XLYSALANKCCHVGCTKRSLARFC
chain 2: ASWMEEVIKLCGRELVRAQIAICGMSTWS
peptide: EGGSE
modifications: not fully specified; Glu^γ bonded by amide to fatty acid -C14-COOH; oxime-linked to pAcF of the A chain; pAcF (para-acetyl-L-phenylalanine) at position 1, oxime-linked to PK enhancer EGGS-Glu^γ-C14-COOH
B21: AQ1-KGPKGP-Glu^γ-C14-COOH (ligand)
chain 1: XLYSALANKCCHVGCTKRSLARFC
chain 2: ASWMEEVIKLCGRELVRAQIAICGMSTWS
peptide: KGPKGPE
modifications: not fully specified; Glu^γ bonded by amide to fatty acid -C14-COOH; oxime-linked to pAcF of the A chain; pAcF (para-acetyl-L-phenylalanine) at position 1, oxime-linked to PK enhancer KGPKGP-Glu^γ-C14-COOH
B22: AQ1-KK-Glu^γ-C13-COOH (ligand)
chain 1: XLYSALANKCCHVGCTKRSLARFC
chain 2: ASWMEEVIKLCGRELVRAQIAICGMSTWS
peptide: KKE
modifications: not fully specified; Glu^γ bonded by amide to fatty acid -C13-COOH; oxime-linked to pAcF of the A chain; pAcF (para-acetyl-L-phenylalanine) at position 1, oxime-linked to PK enhancer …
B23: AQ1-GGGGS-Glu^γ (SEQ ID NO: 139)-C14-COOH (ligand)
chain 1: XLYSALANKCCHVGCTKRSLARFC
chain 2: ASWMEEVIKLCGRELVRAQIAICGMSTWS
peptide: GGGGSE
modifications: not fully specified; Glu^γ bonded by amide to fatty acid -C14-COOH (-(C=O)-(CH2)13-COOH); oxime-linked to pAcF of the A chain; modified para-acetyl-L-phenylalanine at the N-terminus (position 1), oxime-linked to PK enhancer GGGGS-Glu^γ-C14-COOH (Formula III)
B24: AQ1-EAQKAQAEAQKAQAEAQKAQA-Glu^γ-C15-COOH (ligand)
chain 1: XLYSALANKCCHVGCTKRSLARFC
chain 2: ASWMEEVIKLCGRELVRAQIAICGMSTWS
peptide: EAQKAQAEAQKAQAEAQKAQAE
modifications: not fully specified; Glu^γ bonded by amide to fatty acid -C15-COOH; oxime-linked to pAcF of the A chain; pAcF (para-acetyl-L-phenylalanine) at position 1, oxime-linked to PK enhancer EAQKAQAEAQKAQAEAQKAQA-Glu^γ-C15-COOH
B25: AQ1-EEEEEE-Glu^γ-C14-CH3 (ligand)
chain 1: XLYSALANKCCHVGCTKRSLARFC
chain 2: ASWMEEVIKLCGRELVRAQIAICGMSTWS
peptide: EEEEEEE
modifications: not fully specified; Glu^γ bonded by amide to fatty acid -C14-CH3; oxime-linked to pAcF of the A chain; pAcF (para-acetyl-L-phenylalanine) at position 1, oxime-linked to PK enhancer EEEEEE-Glu^γ-C14-CH3

Target: T1, human RXFP1 receptor (human, UniProt Q9HBX9 1-757)
T1 sequence (looked up): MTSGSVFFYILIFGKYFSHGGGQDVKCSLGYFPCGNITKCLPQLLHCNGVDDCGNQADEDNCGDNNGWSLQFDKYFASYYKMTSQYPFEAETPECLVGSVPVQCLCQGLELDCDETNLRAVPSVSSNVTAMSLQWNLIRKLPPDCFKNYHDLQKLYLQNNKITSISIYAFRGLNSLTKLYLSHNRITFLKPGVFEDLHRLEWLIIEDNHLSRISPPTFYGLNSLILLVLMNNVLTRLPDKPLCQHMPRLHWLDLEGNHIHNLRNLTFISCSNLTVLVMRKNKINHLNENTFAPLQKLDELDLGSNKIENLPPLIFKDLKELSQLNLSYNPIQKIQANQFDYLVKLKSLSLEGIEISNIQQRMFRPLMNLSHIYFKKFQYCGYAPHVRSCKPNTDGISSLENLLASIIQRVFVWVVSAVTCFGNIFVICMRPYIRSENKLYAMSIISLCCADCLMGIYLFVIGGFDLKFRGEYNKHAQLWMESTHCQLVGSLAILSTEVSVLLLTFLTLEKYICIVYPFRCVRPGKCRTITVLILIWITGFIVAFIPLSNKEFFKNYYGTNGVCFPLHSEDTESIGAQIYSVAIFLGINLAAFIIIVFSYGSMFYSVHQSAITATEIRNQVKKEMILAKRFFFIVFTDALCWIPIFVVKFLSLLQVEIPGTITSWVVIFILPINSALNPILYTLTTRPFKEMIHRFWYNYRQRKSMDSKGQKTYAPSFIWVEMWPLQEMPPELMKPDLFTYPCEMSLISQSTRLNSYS
Assay: cell-based or functional assay

Row | Binder | hRXFP1/CHO-K1 cAMP EC50 (nM, avg) [nM]
1 | B1 | 0.18
2 | B2 | 0.27
3 | B3 | 0.39
4 | B4 | 3.22
5 | B5 | 1.36
6 | B6 | 0.35
7 | B7 | 0.95
8 | B8 | 0.32
9 | B9 | 0.6
10 | B10 | 0.15
11 | B11 | 0.25
12 | B12 | 0.37
13 | B13 | 0.34
14 | B14 | 0.29
15 | B15 | 1.81
16 | B16 | 0.4
17 | B17 | 0.39
18 | B18 | 0.34
19 | B19 | 0.44
20 | B20 | 0.33
21 | B21 | 0.23
22 | B22 | 0.1
23 | B23 | 0.28
24 | B24 | 4.96
25 | B25 | 0.38

— US20220211812A1 (Bristol-Myers Squibb, published 2022)
